Like-named read-outs stand apart in the source and are kept apart here. One block for each molecule: values may come before it.
Assays:
[1] = molecular target: T1, putrescine monooxygenase (SpPMO) (Shewanella putrefaciens, UniProt A0A4D6BRL2); assay: Csaky iodine oxidation product-formation assay with […] enzyme; Lineweaver-Burk plots; format: biochemical
T1 construct: gene pubA
T1 sequence (A0A4D6BRL2 1-505): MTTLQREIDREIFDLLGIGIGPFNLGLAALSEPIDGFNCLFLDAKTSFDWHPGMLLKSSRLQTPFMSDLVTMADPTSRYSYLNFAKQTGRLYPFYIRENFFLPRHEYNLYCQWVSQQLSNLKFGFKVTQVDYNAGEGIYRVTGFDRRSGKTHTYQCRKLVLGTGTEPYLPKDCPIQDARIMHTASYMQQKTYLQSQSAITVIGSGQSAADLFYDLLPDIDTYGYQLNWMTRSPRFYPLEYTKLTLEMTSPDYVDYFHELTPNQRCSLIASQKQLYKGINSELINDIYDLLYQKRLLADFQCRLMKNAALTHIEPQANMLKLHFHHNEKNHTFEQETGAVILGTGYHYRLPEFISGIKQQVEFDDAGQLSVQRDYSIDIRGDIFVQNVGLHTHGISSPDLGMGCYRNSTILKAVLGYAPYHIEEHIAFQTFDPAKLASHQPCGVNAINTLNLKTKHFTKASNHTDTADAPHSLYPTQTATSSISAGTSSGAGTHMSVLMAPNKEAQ

[2] = substrate: NCCCCN; assay: Michaelis-Menten kinetics, N-hydroxyl putrescine formation by Csaky iodine oxidation assay (Km); format: biochemical, Shewanella putrefaciens; conditions: FAD
[3] = NADPH putrescine binding pocket: Pro22, Phe23, Gly26, Leu399, Gly402 and Asn406 (docking)

Ki ([1]; read-out: Ki): 18.38 ± 0.008 µM
Molecule: C[C@@H]1O[C@@H](Oc2ccc(CC#N)cc2)[C@H](O)[C@H](O)[C@H]1O [niazirin]

Molecule: COc1cc(/C=C/C(=O)CC(=O)/C=C/c2ccc(O)c(OC)c2)ccc1O [curcumin]
Ki [1]: 2.6 ± 0.0036 µM

B1: putrescine monooxygenase (SpPMO) (Shewanella putrefaciens) (protein)
chain: MTTLQREIDREIFDLLGIGIGPFNLGLAALSEPIDGFNCLFLDAKTSFDWHPGMLLKSSRLQTPFMSDLVTMADPTSRYSYLNFAKQTGRLYPFYIRENFFLPRHEYNLYCQWVSQQLSNLKFGFKVTQVDYNAGEGIYRVTGFDRRSGKTHTYQCRKLVLGTGTEPYLPKDCPIQDARIMHTASYMQQKTYLQSQSAITVIGSGQSAADLFYDLLPDIDTYGYQLNWMTRSPRFYPLEYTKLTLEMTSPDYVDYFHELTPNQRCSLIASQKQLYKGINSELINDIYDLLYQKRLLADFQCRLMKNAALTHIEPQANMLKLHFHHNEKNHTFEQETGAVILGTGYHYRLPEFISGIKQQVEFDDAGQLSVQRDYSIDIRGDIFVQNVGLHTHGISSPDLGMGCYRNSTILKAVLGYAPYHIEEHIAFQTFDPAKLASHQPCGVNAINTLNLKTKHFTKASNHTDTADAPHSLYPTQTATSSISAGTSSGAGTHMSVLMAPNKEAQ
Km ([2]; NADPH): 3.81 µM | Vmax [2, 3]: 0.246 µmol/min/mg | kcat [2, 3]: 0.237 s⁻¹
